Laboratory results reported in patent US8409577.

Target: T1, CD20 (human) (UniProt P11836)
T1 sequence (looked up): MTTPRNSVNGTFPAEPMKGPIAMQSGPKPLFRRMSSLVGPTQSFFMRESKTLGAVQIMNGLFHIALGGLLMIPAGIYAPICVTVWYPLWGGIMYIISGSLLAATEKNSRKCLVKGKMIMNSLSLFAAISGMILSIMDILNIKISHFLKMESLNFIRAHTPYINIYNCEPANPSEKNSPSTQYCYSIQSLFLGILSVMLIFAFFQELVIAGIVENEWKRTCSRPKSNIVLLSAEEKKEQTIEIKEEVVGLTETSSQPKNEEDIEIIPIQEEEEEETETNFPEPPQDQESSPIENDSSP
Experiment: competition, flow cytometry on Ramos B cells; competitor PE-labeled monoclonal anti-CD20 antibody 3 ug/ml

IC50 (read off the curve): 4 nM
Substance: CD20×CD37 bispecific scorpion (015×016) (bispecific antibody)
